Assay results published in the supplement of paper PMC10567573.

B1: PRIM1 (parent)
chain: CCSSADICPKCWTLMTMAIRIIDR

Variants of: B1
Experiment: protein stability index of a GFP-peptide fusion (GPS, HEK-293T) (PSI 1-6); higher = more stable
Conditions: c terminus: a fixed tail appended
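Note: lentivirally expressed fusions sorted by FACS into six bins by GFP to DsRed ratio, PSI derived from sequencing read proportions per bin multiplied by bin number.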

| Variant | protein stability index |
| --- | --- |
| CCSSADICPKCWTLMTMAIRIIDN [R24N] | 1.8 |
| CCSSADICPKCWTLMTMAIRIIDL [R24L] | 1.91 |
| CCSSADICPKCWTLMTMAIRIIDG [R24G] | 1.81 |
| CCSSADICPKCWTLMTMAIRIIDA [R24A] | 1.89 |
| CCSSADICPKCWTLMTMAIRIIDH [R24H] | 1.95 |
| CCSSADICPKCWTLMTMAIRIIDM [R24M] | 2.12 |
| CCSSADICPKCWTLMTMAIRIIDK [R24K] | 1.25 |
| CCSSADICPKCWTLMTMAIRIIDI [R24I] | 1.69 |
| CCSSADICPKCWTLMTMAIRIIDF [R24F] | 1.68 |
| CCSSADICPKCWTLMTMAIRIIDV [R24V] | 2.46 |
| CCSSADICPKCWTLMTMAIRIIDD [R24D] | 2.09 |
| CCSSADICPKCWTLMTMAIRIIDC [R24C] | 2.19 |
| CCSSADICPKCWTLMTMAIRIIDW [R24W] | 2.19 |
| CCSSADICPKCWTLMTMAIRIIDY [R24Y] | 1.78 |
| CCSSADICPKCWTLMTMAIRIIDT [R24T] | 1.97 |
| CCSSADICPKCWTLMTMTIRIIDR [A18T] | 1.56 |
| CCSSADICPKCWTLMTMVIRIIDR [A18V] | 2.18 |
| CCSSADICPKCWTLMTMQIRIIDR [A18Q] | 2.71 |
| CCSSADICPKCWTLMTMWIRIIDR [A18W] | 2.92 |
| CCSSADICPKCWTLMTMPIRIIDR [A18P] | 2.1 |
| CCSSADICPKCWTLMTMRIRIIDR [A18R] | 1.94 |
| CCSSADICPKCWTLMTMYIRIIDR [A18Y] | 1.34 |
| CCSSADICPKCWTLMTMMIRIIDR [A18M] | 1.24 |
| CCSSADICPKCWTLMTMAIYIIDR [R20Y] | 1.91 |

| Variant | protein stability index |
| --- | --- |
| CCSSADICPKCWTLMTMAITIIDR [R20T] | 1.67 |
| CCSSADICPKCWTLMTMAIEIIDR [R20E] | 1.83 |
| CCSSADICPKCWTLMTMAIHIIDR [R20H] | 2.05 |
| CCSSADICPKCWTLMTMAIWIIDR [R20W] | 1.65 |
| CCSSADICPKCWTLMTMAIGIIDR [R20G] | 2.23 |
| CCSSADICPKCWTLMTMAINIIDR [R20N] | 2.18 |
| CCSSADICPKCWTLMTMAIIIIDR [R20I] | 1.33 |
| CCSSADICPKCWTLMTMAILIIDR [R20L] | 1.77 |
| CCSSADICPKCWTLMTMAIKIIDR [R20K] | 1.19 |
| CCSSADICPKCWTLMTMAICIIDR [R20C] | 1.96 |
| CCSSADICPKCWTLMTMAIVIIDR [R20V] | 1.96 |
| CCSSADICPKCWTLMTMAIDIIDR [R20D] | 1.5 |
| CCSSADICPKCWTLMTMAISIIDR [R20S] | 2.01 |
| CCSSADICPKCWTLMTMAIPIIDR [R20P] | 2.25 |
| CCSSADICPKCWTLMTMAIQIIDR [R20Q] | 3.56 |
| CCSSADICPKCWTLMTMAIAIIDR [R20A] | 1.93 |
| CCSSADICPKCWTLMTMAIFIIDR [R20F] | 1.46 |
| CCSSADICPKCWTLMTMAIRKIDR [I21K] | 2.35 |
| CCSSADICPKCWTLMTMAIRHIDR [I21H] | 2.23 |
| CCSSADICPKCWTLMTMAIRRIDR [I21R] | 2.75 |
| CCSSADICPKCWTLMTMAIRVIDR [I21V] | 1.67 |
| CCSSADICPKCWTLMTMAIRDIDR [I21D] | 2.68 |
| CCSSADICPKCWTLMTMAIRCIDR [I21C] | 1.94 |
| CCSSADICPKCWTLMTMAIRQIDR [I21Q] | 2.05 |

| Variant | protein stability index |
| --- | --- |
| CCSSADICPKCWTLMTMAIRMIDR [I21M] | 1.89 |
| CCSSADICPKCWTLMTMAIRLIDR [I21L] | 1.49 |
| CCSSADICPKCWTLMTMAIRTIDR [I21T] | 1.68 |
| CCSSADICPKCWTLMTMAIRPIDR [I21P] | 2.28 |
| CCSSADICPKCWTLMTMAIRNIDR [I21N] | 2.46 |
| CCSSADICPKCWTLMTMAIREIDR [I21E] | 1.58 |
| CCSSADICPKCWTLMTMAIRAIDR [I21A] | 2.2 |
| CCSSADICPKCWTLMTMAIRGIDR [I21G] | 2.2 |
| CCSSADICPKCWTLMTMAIRFIDR [I21F] | 1.39 |
| CCSSADICPKCWTLMTMAIRYIDR [I21Y] | 1.73 |
| CCSSADICPKCWTLMTMAIRWIDR [I21W] | 1.9 |
| CCSSADICPKCWTLMTMAPRIIDR [I19P] | 2.8 |
| CCSSADICPKCWTLMTMAHRIIDR [I19H] | 2.8 |
| CCSSADICPKCWTLMTMALRIIDR [I19L] | 2.12 |
| CCSSADICPKCWTLMTMAERIIDR [I19E] | 2.48 |
| CCSSADICPKCWTLMTMAARIIDR [I19A] | 1.93 |
| CCSSADICPKCWTLMTMAQRIIDR [I19Q] | 1.81 |
| CCSSADICPKCWTLMTMAFRIIDR [I19F] | 1.57 |
| CCSSADICPKCWTLMTMATRIIDR [I19T] | 2.98 |
| CCSSADICPKCWTLMTMAWRIIDR [I19W] | 1.83 |
| CCSSADICPKCWTLMTMAYRIIDR [I19Y] | 2.05 |
| CCSSADICPKCWTLMTMASRIIDR [I19S] | 2.6 |
| CCSSADICPKCWTLMTMANRIIDR [I19N] | 2.89 |
| CCSSADICPKCWTLMTMAVRIIDR [I19V] | 2.58 |

| Variant | protein stability index |
| --- | --- |
| CCSSADICPKCWTLMTMAMRIIDR [I19M] | 2.33 |
| CCSSADICPKCWTLMTMAGRIIDR [I19G] | 2.21 |
| CCSSADICPKCWTLMTMADRIIDR [I19D] | 2.92 |
| CCSSADICPKCWTLMTMAKRIIDR [I19K] | 2.77 |
| CCSSADICPKCWTLMTMAIRIIRR [D23R] | 1.68 |
| CCSSADICPKCWTLMTMAIRIIWR [D23W] | 2.15 |
| CCSSADICPKCWTLMTMAIRIIPR [D23P] | 2.42 |
| CCSSADICPKCWTLMTMAIRIIKR [D23K] | 1.41 |
| CCSSADICPKCWTLMTMAIRIIAR [D23A] | 2.29 |
| CCSSADICPKCWTLMTMAIRIIQR [D23Q] | 2.09 |
| CCSSADICPKCWTLMTMAIRIICR [D23C] | 2.19 |
| CCSSADICPKCWTLMTMAIRIIHR [D23H] | 1.69 |
| CCSSADICPKCWTLMTMAIRIIIR [D23I] | 1.84 |
| CCSSADICPKCWTLMTMAIRIILR [D23L] | 2.25 |
| CCSSADICPKCWTLMTMAIRIINR [D23N] | 1.47 |
| CCSSADICPKCWTLMTMAIRIIYR [D23Y] | 1.61 |
| CCSSADICPKCWTLMTMAIRIIER [D23E] | 1.94 |
| CCSSADICPKCWTLMTMAIRIIVR [D23V] | 2.31 |
| CCSSADICPKCWTLMTMAIRIIMR [D23M] | 1.64 |
| CCSSADICPKCWTLMTMAIRIISR [D23S] | 2.96 |
| CCSSADICPKCWTLMTMAIRIITR [D23T] | 1.82 |
| CCSSADICPKCWTLMTMAIRIIFR [D23F] | 1.78 |
